In series [1] the target is T1, human plasma-derived von Willebrand Factor (VWF) (human, UniProt P04275 764-2813).
T1 construct: also called pd-VWF; human plasma-derived VWF
As to the kind of experiment: VWF:FVIIIB enzyme immunoassay, FVIII binding capacity of plasma VWF after incubation with 200 or 600 nM antibody; FVIII as the partner tested.

Series [2] deals with T2, His-StrepTagII-HRV3C-cyno VWF-CK-HA-tag (cynomolgus monkey).
T2 construct: also called recombinant cyno CK domain; cyno CK
T2 chain: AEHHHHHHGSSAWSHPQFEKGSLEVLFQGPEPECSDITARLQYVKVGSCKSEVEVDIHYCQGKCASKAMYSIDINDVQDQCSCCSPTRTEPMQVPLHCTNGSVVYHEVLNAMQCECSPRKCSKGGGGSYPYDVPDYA
As to the kind of experiment: solution-phase equilibrium binding, unbound antibody by ELISA.

Series [3] deals with human plasma-derived von Willebrand Factor (VWF).
In series [4] the target is T3, biotinylated human VWF cysteine knot (CK) domain construct (human, biotin on the in vitro biotinylation tag (residue not stated); one N-glycan).
T3 construct: Disulfide-linked homodimer; also called biotinylated human VWF CK domain; human VWF CK domain construct
T3 chain: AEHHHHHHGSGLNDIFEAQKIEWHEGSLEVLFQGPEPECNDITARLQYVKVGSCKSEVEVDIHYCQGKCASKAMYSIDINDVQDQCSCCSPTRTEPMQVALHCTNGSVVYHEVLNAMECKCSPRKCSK
As to the kind of experiment: SPR, scFv captured on anti-SV5, pH 7.4; apparent Kd.

B1: Lib1_P1_A9 OA (antibody, human IgG4 S228P, kappa, F234A L235A)
heavy: QVQLVQSGAEVKKPGASVKVSCKVSGDTLSSYGIHWVRQAPGKGLEWMGGSIPSFGTAIYAQKFQGRVTMTEDTSTDTAYMELSSLKSEDTAVYYCTSEGPWLPFFSFDYWGQGTLVTVSSASTKGPSVFPLAPCSRSTSESTAALGCLVKDYFPEPVTVSWNSGALTSGVHTFPAVLQSSGLYSLSSVVTVPSSSLGTKTYTCNVDHKPSNTKVDKRVESKYGPPCPPCPAPEAAGGPSVFLFPPKPKDTLMISRTPEVTCVVVDVSQEDPEVQFNWYVDGVEVHNAKTKPREEQFNSTYRVVSVLTVLHQDWLNGKEYKCKVSNKGLPSSIEKTISKAKGQPREPQVYTLPPSQEEMTKNQVSLSCAVKGFYPSDIAVEWESNGQPENNYKTTPPVLDSDGSFFLVSRLTVDKSRWQEGNVFSCSVMHEALHNHYTQKSLSLSLG
chain: ESKYGPPCPPCPAPEAAGGPSVFLFPPKPKDTLMISRTPEVTCVVVDVSQEDPEVQFNWYVDGVEVHNAKTKPREEQFNSTYRVVSVLTVLHQDWLNGKEYKCKVSNKGLPSSIEKTISKAKGQPREPQVYTLPPSQEEMTKNQVSLWCLVKGFYPSDIAVEWESNGQPENNYKTTPPVLDSDGSFFLYSRLTVDKSRWQEGNVFSCSVMHEALHNHYTQKSLSLSLG
light: DIQMTQSPSSVSASVGDRVTITCRASQGISRNLAWYQQKPGKAPKLLIYKASSLASGVPSRFSGSGSGTDFTLTISSLQPEDFANYYCQQSFSTPVTFGGGTKVEIKRTVAAPSVFIFPPSDEQLKSGTASVVCLLNNFYPREAKVQWKVDNALQSGNSQESVTEQDSKDSTYSLSSTLTLSKADYEKHKVYACEVTHQGLSSPVTKSFNRGEC
notes: also called monovalent (one-arm) Lib1_P1_A9
As to B1, in series [1], the “VWF:FVIII level (% of untreated donor-matched plasma)” value was above 80%. Besides, the “fold change in Kd, cyno CK against human CK” value (from here on “fold change in Kd, cyno CK”) in series [2] is below 2 fold.

B2: Lib1_P1_G3 OA (antibody, human IgG4 S228P, kappa, F234A L235A)
heavy: QVQLVQSGAEVKKPGASVKVSCKVSGYTSRQYIHWVRQAPGKGLEWMGWVTPIFGTTNYAQKFQGRVTMTEDTSTDTAYMELSSLKSEDTAVYYCAREWTGTTAFDIWGQGTLVTVSSASTKGPSVFPLAPCSRSTSESTAALGCLVKDYFPEPVTVSWNSGALTSGVHTFPAVLQSSGLYSLSSVVTVPSSSLGTKTYTCNVDHKPSNTKVDKRVESKYGPPCPPCPAPEAAGGPSVFLFPPKPKDTLMISRTPEVTCVVVDVSQEDPEVQFNWYVDGVEVHNAKTKPREEQFNSTYRVVSVLTVLHQDWLNGKEYKCKVSNKGLPSSIEKTISKAKGQPREPQVYTLPPSQEEMTKNQVSLSCAVKGFYPSDIAVEWESNGQPENNYKTTPPVLDSDGSFFLVSRLTVDKSRWQEGNVFSCSVMHEALHNHYTQKSLSLSLG
chain: ESKYGPPCPPCPAPEAAGGPSVFLFPPKPKDTLMISRTPEVTCVVVDVSQEDPEVQFNWYVDGVEVHNAKTKPREEQFNSTYRVVSVLTVLHQDWLNGKEYKCKVSNKGLPSSIEKTISKAKGQPREPQVYTLPPSQEEMTKNQVSLWCLVKGFYPSDIAVEWESNGQPENNYKTTPPVLDSDGSFFLYSRLTVDKSRWQEGNVFSCSVMHEALHNHYTQKSLSLSLG
light: DIQMTQSPSSVSASVGDRVTITCRASQDIGHYLAWYQQKPGKAPKLLIYAASNRASGVPSRFSGSGSGTDFTLTISSLQPEDFANYYCQQGYSAPYGFGGGTKVEIKRTVAAPSVFIFPPSDEQLKSGTASVVCLLNNFYPREAKVQWKVDNALQSGNSQESVTEQDSKDSTYSLSSTLTLSKADYEKHKVYACEVTHQGLSSPVTKSFNRGEC
notes: monovalent one-arm human IgG4
Turning to B2, in series [1], the “VWF:FVIII level (% of untreated donor-matched plasma)” value was above 80%. Besides, in series [2], the “fold change in Kd, cyno CK” value was below 2 fold.

B3: Lib1_P1_A6 OA (antibody, human IgG4 S228P, kappa, F234A L235A)
heavy: QVQLVQSGAEVKKPGASVKVSCKVSGSTFSNYAIHWVRQAPGKGLEWMGGIVPLSGTAIYAQKFQGRVTMTEDTSTDTAYMELSSLKSEDTAVYYCARDQGESSGWYAIYYGMDVWGQGTTVTVSSASTKGPSVFPLAPCSRSTSESTAALGCLVKDYFPEPVTVSWNSGALTSGVHTFPAVLQSSGLYSLSSVVTVPSSSLGTKTYTCNVDHKPSNTKVDKRVESKYGPPCPPCPAPEAAGGPSVFLFPPKPKDTLMISRTPEVTCVVVDVSQEDPEVQFNWYVDGVEVHNAKTKPREEQFNSTYRVVSVLTVLHQDWLNGKEYKCKVSNKGLPSSIEKTISKAKGQPREPQVYTLPPSQEEMTKNQVSLSCAVKGFYPSDIAVEWESNGQPENNYKTTPPVLDSDGSFFLVSRLTVDKSRWQEGNVFSCSVMHEALHNHYTQKSLSLSLG
chain: ESKYGPPCPPCPAPEAAGGPSVFLFPPKPKDTLMISRTPEVTCVVVDVSQEDPEVQFNWYVDGVEVHNAKTKPREEQFNSTYRVVSVLTVLHQDWLNGKEYKCKVSNKGLPSSIEKTISKAKGQPREPQVYTLPPSQEEMTKNQVSLWCLVKGFYPSDIAVEWESNGQPENNYKTTPPVLDSDGSFFLYSRLTVDKSRWQEGNVFSCSVMHEALHNHYTQKSLSLSLG
light: DIQMTQSPSSVSASVGDRVTITCRASQGIGTWLAWYQQKPGKAPKLLIYGSSSRASGVPSRFSGSGSGTDFTLTISSLQPEDFANYYCQQSYGKPTFGGGTKVEIKRTVAAPSVFIFPPSDEQLKSGTASVVCLLNNFYPREAKVQWKVDNALQSGNSQESVTEQDSKDSTYSLSSTLTLSKADYEKHKVYACEVTHQGLSSPVTKSFNRGEC
notes: monovalent one-arm human IgG4; also called monovalent (one-arm) Lib1_P1_A6
On to B3, for which, in series [1], the “VWF:FVIII level (% of untreated donor-matched plasma)” value is above 80%. Moreover, the “fold change in Kd, cyno CK” value in series [2] is below 2 fold.

B4: ADAM Metallopeptidase With Thrombospondin Type 1 Motif 13 (ADAMTS13) (protein)
chain: AAGGILHLELLVAVGPDVFQAHQEDTERYVLTNLNIGAELLRDPSLGAQFRVHLVKMVILTEPEGAPNITANLTSSLLSVCGWSQTINPEDDTDPGHADLVLYITRFDLELPDGNRQVRGVTQLGGACSPTWSCLITEDTGFDLGVTIAHEIGHSFGLEHDGAPGSGCGPSGHVMASDGAAPRAGLAWSPCSRRQLLSLLSAGRARCVWDPPRPQPGSAGHPPDAQPGLYYSANEQCRVAFGPKAVACTFAREHLDMCQALSCHTDPLDQSSCSRLLVPLLDGTECGVEKWCSKGRCRSLVELTPIAAVHGRWSSWGPRSPCSRSCGGGVVTRRRQCNNPRPAFGGRACVGADLQAEMCNTQACEKTQLEFMSQQCARTDGQPLRSSPGGASFYHWGAAVPHSQGDALCRHMCRAIGESFIMKRGDSFLDGTRCMPSGPREDGTLSLCVSGSCRTFGCDGRMDSQQVWDRCQVCGGDNSTCSPRKGSFTAGRAREYVTFLTVTPNLTSVYIANHRPLFTHLAVRIGGRYVVAGKMSISPNTTYPSLLEDGRVEYRVALTEDRLPRLEEIRIWGPLQEDADIQVYRRYGEEYGNLTRPDITFTYFQPKPRQAWVWAAVRGPCSVSCGAGLRWVNYSCLDQARKELVETVQCQGSQQPPAWPEACVLEPCPPYWAVGDFGPCSASCGGGLRERPVRCVEAQGSLLKTLPPARCRAGAQQPAVALETCNPQPCPARWEVSEPSSCTSAGGAGLALENETCVPGADGLEAPVTEGPGSVDEKLPAPEPCVGMSCPPGWGHLDATSAGEKAPSPWGSIRTGAQAAHVWTPAAGSCSVSCGRGLMELRFLCMDSALRVPVQEELCGLASKPGSRREVCQAVPCPARWQYKLAACSVSCGRGVVRRILYCARAHGEDDGEEILLDTQCQGLPRPEPQEACSLEPCPPRWKVMSLGPCSASCGLGTARRSVACVQLDQGQDVEVDEAACAALVRPEASVPCLIADCTYRWHVGTWMECSVSCGDGIQRRRDTCLGPQAQAPVPADFCQHLPKPVTVRGCWAGPCVGQGTPSLVPHEEAAAPGRTTATPAGASLEWSQARGLLFSPAPQPRRLLPGPQENSVQSSACGRQHLEPTGTIDMRGPGQADCAVAIGRPLGEVVTLRVLESSLNCSAGDMLLLWGRLTWRKMCRKLLDMTFSSKTNTLVVRQRCGRPGGGVLLRYGSQLAPETFYRECDMQLFGPWGEIVSPSLSPATSNAGGCRLFINVAPHARIAIHALATNMGAGTEGANASYILIRDTHSLRTTAFHGQQVLYWESESSQAEMEFSEGFLKAQASLRGQYWTLQSWVPEMQDPQSWKGKEGT
Turning to B4, in series [3], the “VWF multimer distribution (LMW/IMW/HMW) after ristocetin, in the presence of 600 nM Lib1_P1_A6 OA” value was “The same shift in VWF multimer pattern was observed when plasma was treated with ristocetin in the presence of 600 nM antibody including Lib1_P1_A9 and Lib1_P1_A6”; the “VWF multimer distribution (LMW/IMW/HMW) after ristocetin, in the presence of 600 nM Lib1_P1_A9 OA” value was “The same shift in VWF multimer pattern was observed when plasma was treated with ristocetin in the presence of 600 nM antibody including Lib1_P1_A9 and Lib1_P1_A6”.

B5: Lib1_P1_A9_scFv (scFv, not shown: small tags and cut ends)
scFv: QVQLVQSGAEVKKPGASVKVSCKVSGDTLSSYGIHWVRQAPGKGLEWMGGSIPSFGTAIYAQKFQGRVTMTEDTSTDTAYMELSSLKSEDTAVYYCTSEGPWLPFFSFDYWGQGTLVTVSSSGGSTITSYNVYYTKLSSSGTDIQMTQSPSSVSASVGDRVTITCRASQGISRNLAWYQQKPGKAPKLLIYKASSLASGVPSRFSGSGSGTDFTLTISSLQPEDFANYYCQQSFSTPVTFGGGTKVEIK
notes: soluble scFv, VH-linker-VL, expressed in S. cerevisiae (applies to all 63 scFvs)
Take B5: the Kd in series [4] was 0.05 nM.

B6: 17561_Lib6_scFv (scFv, not shown: small tags and cut ends)
scFv: EVQLVQSGAEVKKPGASVKVSCKASGYTFTDLPISWVRQAPGQGLEWMGWINPYTGDTNYAQKLQGRGTMTTDPSTSTAYMELRSLRSDDTAVYYCARDGVILGYYYYYGMDVWGQGTTVTVSSSGGSTITSYNVYYTKLSSSGTESALTQPASVSGSPGQSITISCTGTDLGSKSVSWYQQHPGKAPKLMIYDNFNRPSGVSNRFSGSKSGNTASLTISGLQAEDEADYYCSSRTVSGTYVFGGGTKLTVL
As for B6, the Kd in series [4] was 10 nM.

Source of the values: patent publication US20250154283A1 (published 2025).
